Reference: the DeepSol protein solubility set

Experiment: soluble on expression in E. coli; label from the status in PepcDB or PDB records
With “MSSPGGETSTKQQQELKAQIKIGHYILKETLGVGTFGKVKVGIHETTQYKVAVKILNRQKIKSLDVVGKIRREIQNLSLFRHPHIIRLYQVISTPSDIFMIMEHVSGGELFDYIVKHGRLKTAEARRFFQQIISGVDYCHRHMVVHRDLKPENLLLDEQNNVKIADFGLSNIMTDGDFLRTSCGSPNYAAPEVISGKLYAGPEVDVWSCGVILYALLCGTLPFDDEHVPSLFRKIKSGVFPTPDFLERPIVNLLHHMLCVDPMKRATIKDVIAHEWFQKDLPNYLFPPINESEASIVDIEAVREVTERYHVAEEEVTSALLGDDPHHHLSIAYNLIVDNKRIADETAKLSIEEFYQVTPNKGPGPVHRHPERIAASVSSKITPTLDNTEASGANRNKRAKWHLGIRSQSRPEDIMFEVFRAMKQLDMEWKVLNPYHVIVRRKPDAPAADPPKMSLQLYQVDQRSYLLDFKSLADEESGSASASSSRHASMSMPQKPAGIRGTRTSSMPQAMSMEASIEKMEVHDFSDMSCDVTPPPSPGGAKLSQTMQFFEICAALIGTLAR” the “soluble on expression in E. coli” value was “not soluble”. For “MMVDTGVDHRAVSSHDGPDAGRRVFGAADPRFACVVRAFASMFPGRRFGGGALAVYLDGQPVVDVWKGWADRAGWVPWSADSAPMVFSATKGMTATVIHRLADRGLIDYEAPVAEYWPAFGANGKATLTVRDVMRHQAGLSGLRGATQQDLLDHVVMEERLAAAVPGRLLGKSAYHALTFGWLMSGLARAVTGKDMRLLFREELAEPLDTDGLHLGRPPADAPTRVAEIIMPQDIAANAVLTCAMRRLAHRFSGGFRSMYFPGAIAAVQGEAPLLDAEIPAANGVATARALARMYGAIANGGEIDGIRFLSRELVTGLTRNRRQVLPDRNLLVPLNFHLGYHGMPIGNVMPGFGHVGLGGSIGWTDPETGVAFALVHNRLLSPLEHHHHHH”, the “soluble on expression in E. coli” value was “not soluble”. In the case of “MLSARTMKEVVYWSPKKVADWLLENAMPEYCEPLEHFTGQDLINLTQEDFKKPPLYRVSSDNGQRLLDMIETLKMEHHMEAHKN”, the “soluble on expression in E. coli” value is reported as “soluble”. For “GPMNQLDQLGTRINLICNVFDKWIGQQDLNYNLFAVLYTLATEGSRTQKHIGEKWSLPKQTVSGVCKTLAGQGLIEWQEGEQDRRKRLLSLTETGKAYAAPLTESAQEFSDKVFATFGDKRTTRLFADLDALAEVMEKTISENKK”, the “soluble on expression in E. coli” value was “soluble”. For “MGKDLRGKELGVGLYQRKDKRYSARYTNQYGKRMEFYDFKLSVVKKWLNDARYEDEHGLSGTGEKVTVTEWFEKWIKLYKEGVVKDNTVKNYKSRFENNIKPAIGNLQLNKVKKIQLQTILNNMYEEGYAFGTMVLAQITIHALFDGAVQSEILAKNPANGLKCKQRDVKDSRVLTREEQKVFLEYSRGTMYYNAYALLLQTGLRPGEVGGLKWEDIDFDKRELHITRTLLQDKAKGGFYFGSPKNKKSIRTVPLTDTAIQLLKDQRICNFKLRQRSDNWQKNKEFDNLIFCTINGNPVGQSTFRMMMLRVITRINNDRRAEAEINNTTYVEFEPAHPHTLRHTFATRCIEDGMKPNVLQKILGHASITVTMDLYVHETHEEKHKEIRKLGNVEEIGVKLA”, the “soluble on expression in E. coli” value was “not soluble”. In the case of “MAHHHHHHMELLNQENDGFLEDMSDSINKQIKELENVPSKDIIRNIWFKVHCNERNKFHSLIYSIRKIHDKYFSDTNKNEELGKKVWNKCCAIITEELLKLDSIQNSQFHNLMQQETVTLQEFEDFVKFSVNGYKNTKKETKKICIKKLKKALNQRL”, the “soluble on expression in E. coli” value is reported as “soluble”. For “MGKKQHQKDKLYLTTSEWKSIGGHKDDTGTRLQRAQFKRLPINHCSLSLLPFEDPVCARSGEIFDLTAIVPYLKKHGKNPCTGKPLVAKDLIHLKFDKGEDGKFRCPVTFRTFTDHSHILAIATSGNVYSHEAVQELNLKRNHLKDLLTDVPFTRADIIDLQDPNHLEKFNMEQFLHVKLDLKTSEEIKKEKDAMKDPKFYIRRMNNACKSVLDQLDKEYVPKKSSTETDETADEINAAHYSQGKVAAGFTSTVMAPVTSNKAAVLDNDTVRYSRVKKNAFVRLVTNFGPLNLELFAPKVPKACENFITHCSNGYYNNTKFHRLIKNFMLQGGDPTGTGHGGESIWDKPFSDEFISGFSHDARGVLSMANKGSNTNGSQFFITFRPCKYLDRKHTIFGRLVGGQDTLTTIEKLETEEGTDVPMVSVVIMRAEVFVDPFEEAEKEVQAERAEILKKTSKDAASLANKKAKETATKPEAVGTGVGKYMKSAAAVNKRQGKMEDVPLEAAKKTKFARAGLGDFSKW”, the “soluble on expression in E. coli” value was “not soluble”. In the case of “MKIKPVKVESIENPKRFLNSRLLTKIEVEEAIEKALKQLYINIDYFGEEYPTPATFNNIYKVMDNTEWTNGFWTGCLWLAYEYNQDKKLKNIAHKNVLSFLNRINNRIALDHHDLGFLYTPSCTAEYRINGDVKALEATIKAADKLMERYQEKGGFIQAWGELGYKEHYRLIIDCLLNIQLLFFAYEQTGDEKYRQVAVNHFYASANNVVRDDSSAFHTFYFDPETGEPLKGVTRQGYSDESSWARGQAWGIYGIPLSYRKMKDYQQIILFKGMTNYFLNRLPEDKVSYWDLIFTDGSGQPRDTSATATAVCGIHEMLKYLPEVDPDKETYKYAMHTMLRSLIEQYSNNELIAGRPLLLHGVYSWHSGKGVDEGNIWGDYYYLEALIRFYKDWELYW”, the “soluble on expression in E. coli” value is reported as “soluble”. With “RSFGLRASLVDALRKGKIQVAYQPLRVLDSGRMAGVEALARWTYDEVGPISPVTFLGWVEAMGLRQPFTRYIVQAALDGMKTRMAGDAPFYLSINVFPEDLEDESFLDFLTQSVRERELSPGSVVLEVTESAVFSTASPSVLFRRFRAAGFRIFLDDFGVGYSNLGNIIRWEVDGIKLDRIFMQSLGDFDSAAPVLDQVIEMARQLDLHLVIEGIEVRSQADYIFKRAPHAVGQGWLFGRPGPACALPAA” the “soluble on expression in E. coli” value was “not soluble”. With “MEEWPALQWSQGTPASGPALQALEEYAFVPRDDESRQGIRTDALLVIRDGRLLYERYAGATGPQTPHLAWSASKSLLAVLLGVAFGEGRFQLQDPAAKFYPPLEAHPDITLADLLHWASGLDWQEDYEYAPLNSSVVAMLYTRGHRDMAAFTVQQAASGPPGQVFRYSSGDSNLLAASLRGMVGEGQYADYPWRALFEPLGITQAVWERDAAGTFVASSYLYLTARDLARIGLLMQRDGRWRDRQLLPKAWVEFCRTPFRGYRANQDVAVAGGHWWLNREVDGAPRPWPDAPADTYAALGHWGQALYVLPAQRLVIVRYGDDRDGSYQHNELLKRVLAAFATPEQPLEHHHHHH” the “soluble on expression in E. coli” value was “not soluble”. For “DAIAVWGHRPSAAKPVAIAKAAGKPVIRLEDGFVRSLDLGVNGEPPLSLVVDDCGIYYDASKPSALEKLVQDKAGNAALADQAREAMHTIVTGDLSKYNLAPAFVADESERADIVLVVDQTFNDMSVTYGNAGPHEFAAMLEAAMEENPQAEIWVKVHPDVLEGKKTGYFADLRATQRVRLIAENVSPQSLLRHVSRVYVVTSQYGFEALLAGKPVTCFGQPWYAGWGLTDDRHPQSALLSARRGSATLEELFAAAYLRYCRYIDPLTG”, the “soluble on expression in E. coli” value was “not soluble”. In the case of “MDRRQKRLIFSTITSKMNLSEEVDLEDYVARPDKISGADINSICQESGMLAVRENRYIVLAKDFEKAYKTVIKKDEQEHEFYK”, the “soluble on expression in E. coli” value is reported as “soluble”. In the case of “MGSSHHHHHHSSGRENLYFQGMSVVFGVDIVGGSVHGKIKPKYAVVVLENGNEFEKIVSRSKLFRMVKKEKPDIIAVDNIYEVFKDKKDLIFFLKNAPSKTKLVQVTDRENSLPSLSKRFGLNINIRNPVDEARACAYLASFGMGSEISVFTDKTKITVSRNRSLGKGGWRQKKYGRKIHNAVREVYKEIRDRIVEAGFEFVEEVRKGYGGISRGVILVSAPRDRVPINSFKTRDVQVAVEAVEKEKIEFIPLRRTLRYLIVGIDPGATTAIAALDLRGELVDMKSRKGWSPAEVIEFISSLGKPVVVSTDKSSPPEFVSKIRASFNAVLYTPKEDMSVEKKRILTSKYSTSNDHERDALAAAIDAFNSYKSKLINVEKRLPAGIDSDRIKAEIIRGTPLKEVLSVTREESREEKVQAETVSREEILKRDRVIERLKEENRILSRKIKEMKDEIEKLRARVASISREEHEKIRKDTYVQNLEREIFDLRKKLKEKDEEIEQLKERIALLRKMKMLEFQGWKEVKVLRKFTKEEIERAEREMGISEGDIILIVDSSGGSASLAEMLCEKKVRAIIYGSEMSHLAAETFEKYNIPRISIDEVEIMMGDDIAVVNAEEFERVYAEKLEETKRRKIDFLEKLVEDYRRRRVV”, the “soluble on expression in E. coli” value is reported as “soluble”. For “HSLLPVDDAINGLSEEQRQLRQTMAKFLQEHLAPKAQEIDRSNEFKNLREFWKQLGNLGVLGITAPVQYGGSGLGYLEHVLVMEEISRASGAVGLSYGAHSNLCINQLVRNGNEAQKEKYLPKLISGEYIGALAMSEPNAGSDVVSMKLKAEKKGNHYILNGNKFWITNGPDADVLIVYAKTDLAAVPASRGITAFIVEKGMPGFSTSKKLDKLGMRGSNTCELIFEDCKIPAANILGHENKGVYVLMSGLDLERLVLAGGPLGLMQAVLDHTIPYLHVREAFGQKIGHFQLMQGKMADMYTRLMACRQYVYNVAKACDEGHCTAKDCAGVILYSAECATQVALDGIQCFGGNGYINDFPMGRFLRDAKLYEIGAGTSEVRRLVIGRAFNADFH”, the “soluble on expression in E. coli” value was “soluble”. With “MGHERDWSLVQVALTDITARKKAEAYLEYLGKHDVLTKLHNRAFYSDELNRLERSALRPVSAIVIDLNGLKEANDKLGHDAGDALLRRVGEVLNGVVTAPNHAARIGGDEFAILLPGADKQVAAAMVDTVYELLKINNQFYSSAPLSLSLGVATTEAGETMESLVRRADMNMYEQKNAYYAALRNRSADNNDTTKGLEHHHHHH” the “soluble on expression in E. coli” value was “not soluble”. In the case of “MGLNVREGEIMAKNRSRRLRKKMHIDEFQELGFSVAWRFPEGTSEEQIDKIVDDFINEVIEPNKLAFDGSGYLAWEGLICMQEIGKCTEEHQAIVRKWLEECKLDEVRTSELFDVWWD”, the “soluble on expression in E. coli” value is reported as “not soluble”. With “MGSDKIHHHHHHMIENLNGIHETVKYKEYSNVKLFINAEAEDYPIHWHTPMEIIMPLEGGYTVQIGDDLVHLNENDIIFIASGVKHRLIAPDTGKRLILQIEWSAVSKIKELNSILTLIAPAITLTPETSGDIHSNIRKLLLDISNEYQTDSFLSEAVIYSKILEVLVLIGRHHTASSCHFNVGRHKQQEYLERFLSICEYIDTHCTEDITLDEIAKIAGFSKYHFTRLFKQFTNNTFYKYLNQKRIELALTLLADPNISVTETAMQSGFANPSTFIRVFKTEKGCTPTEFRKMFIG” the “soluble on expression in E. coli” value was “not soluble”. With “MGSDKIHHHHHHMIQPVSCICPIAAKLITSRPAQKLLPAPESTTARASEAATSLAAAITAASMCLSTAFILSARVRVTWATWSRISTDTRALSSAITAPPSGCRLNVACSLPRFGRAFQPDARARRTGSFPDRDLISPDLPLPACARAARSWAMTDSRQTPLAQSLPASVPFVGPETHERQRGAPFVARLGANENLFGVSPKAIAAMQASAAEIWKYGDAESYELRAALSALHGIAPEHIMVGEGIDGLLGNLVRLYVGAGDAVVTSLGAYPTFNYHVAGFGGDLHTVPYKDDHEDIKALMAKAHEVGAKLVYLANPDNPMGSWHRGADIVAALDDLPEGSLLVLDEAYVECAPKGTAAPVDVTDPRVIRMRTLSKAYGMAGARVGYAMGAVEVISAFHKVRNHFGMNRCAQIGATEAIKDQAWLAHVQAEIATAREEISRIARENGLTPLPSATNFVAIDCGRDGAFAKAVLEALVARDIFVRMPFAAPQNRCIRVSCGPERERRAFAEALPLALKDAQNGA” the “soluble on expression in E. coli” value was “not soluble”.
